According to US20200102347A1 (AUCTUS BIOLOGIES, published 2020):
Substitutions are numbered along the chain they refer to. Numbers in names are those of the source. No end group written: not given here. *: point of attachment. RhodamineB = CCN(CC)c1ccc2c(-c3ccccc3C(=O)*)c3ccc(=[N+](CC)CC)cc-3oc2c1

T1: NativeRPtag(large)_with_Tags_and_Cys (Thermoanaerobacter tengcongensis)
T1 construct: Unlabeled in anisotropy assays; coupled through the engineered N-terminal Cys to SulfoLink agarose or maleimide plates in column, pull-down and ELISA assays
T1 chain: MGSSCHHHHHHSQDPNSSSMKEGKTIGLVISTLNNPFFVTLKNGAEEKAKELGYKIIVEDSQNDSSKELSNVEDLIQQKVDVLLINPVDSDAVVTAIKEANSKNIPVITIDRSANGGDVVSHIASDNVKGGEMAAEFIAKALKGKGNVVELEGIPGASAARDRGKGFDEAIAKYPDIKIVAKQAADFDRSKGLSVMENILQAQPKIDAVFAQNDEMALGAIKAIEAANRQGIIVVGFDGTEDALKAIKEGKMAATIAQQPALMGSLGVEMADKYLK

T2: MaturePDGF-β_NterminalPeptide
T2 construct: an N-terminal G was added and is left out of the numbering; also called PDGF-β peptide
T2 peptide: RhodamineB-GSLGSLTIAEPAMIAE

B1: a253k (designed binder)
single chain: T1 chain with A253K
notes: also called RPtag(large) A253K
B2: m270e (designed binder)
single chain: T1 chain with M270E
notes: also called RPtag(large) M270E
B3: a253r (designed binder)
single chain: T1 chain with A253R
notes: also called RPtag(large) A253R
B4: d126w (designed binder)
single chain: T1 chain with D126W
notes: also called RPtag(large) D126W
B5: h122l (designed binder)
single chain: T1 chain with H122L
notes: also called RPtag(large) H122L
B6: k129y (designed binder)
single chain: T1 chain with K129Y
notes: also called RPtag(large) K129Y
B7: k129h (designed binder)
single chain: T1 chain with K129H
notes: also called RPtag(large) K129H
B8: h122a (designed binder)
single chain: T1 chain with H122A
notes: also called RPtag(large) H122A
B9: k129f (designed binder)
single chain: T1 chain with K129F
notes: also called RPtag(large) K129F
B10: f137t (designed binder)
single chain: T1 chain with F137T
notes: also called RPtag(large) F137T
B11: h122w (designed binder)
single chain: T1 chain with H122W
notes: also called RPtag(large) H122W
B12: f137s (designed binder)
single chain: T1 chain with F137S
notes: also called RPtag(large) F137S
B13: k129a (designed binder)
single chain: T1 chain with K129A
notes: also called RPtag(large) K129A
B14: g130v (designed binder)
single chain: T1 chain with G130V
notes: also called RPtag(large) G130V
B15: m270r (designed binder)
single chain: T1 chain with M270R
notes: also called RPtag(large) M270R
B16: m270n (designed binder)
single chain: T1 chain with M270N
notes: also called RPtag(large) M270N
B17: h122f (designed binder)
single chain: T1 chain with H122F
notes: also called RPtag(large) H122F
B18: g130a (designed binder)
single chain: T1 chain with G130A
notes: also called RPtag(large) G130A
B19: d126a (designed binder)
single chain: T1 chain with D126A
notes: also called RPtag(large) D126A
B20: m270k (designed binder)
single chain: T1 chain with M270K
notes: also called RPtag(large) M270K
B21: RPtag(small) v20a (peptide)
peptide: RhodamineB-GEKIPNFIPAELKLITKENAQ
notes: built here from the native peptide with the stated change
B22: RPtag(small) Nd2, Cd4 (peptide)
peptide: RhodamineB-KIPNFIPAELKLITK

Key:
[1] = target: T1, NativeRPtag(large)_with_Tags_and_Cys; assay: fluorescence anisotropy
[2] = target: T1, NativeRPtag(large)_with_Tags_and_Cys; assay: calculated from koff and Kd
[3] = target: T1, NativeRPtag(large)_with_Tags_and_Cys; assay: fluorescence anisotropy, competitor chase
[4] = target: T1, NativeRPtag(large)_with_Tags_and_Cys; assay: fluorescence anisotropy, association kinetics
RPtag(small) Nd2, Cd4 = target: B22; assay: fluorescence anisotropy; 2 nM rhodamine Nd2Cd4, unlabeled RPtag large variant titrated; bar of Ka = 1/Kd, right axis
Protocol: (§1) After the incubation, fluorescence anisotropy was measured, and the resultant curves were fit with the equation f=y0+(ymax−y0)*(Ptot+x+Kd−sqrt((Ptot+x+Kd)\hat{ }2−4*Ptot*x))/(2*Ptot), where y0 is the baseline anisotropy, ymax is the maximum anisotropy, Ptot is the fixed concentration of labeled peptide used, x is the variable concentration of protein used, and Kd is the measured Kd. […] Buffer was 50 mM Tris pH 8.0, 0.005% Tween20.

[5] = target: T2, MaturePDGF-β_NterminalPeptide; assay: fluorescence anisotropy; 20 nM rhodamine PDGF-β N-terminal peptide, unlabeled RPtag large variant titrated; bar of Ka = 1/Kd, left axis
Protocol: as §1

Kd [1]	kon [2]	koff [3]	Keq (S-S*) [4]	kf (S to S*) [4]	kr (S* to S) [4]	binding result (RPtag(small) Nd2, Cd4)	binding result [5]	Binder
1 nM	3.67e+06 M⁻¹ s⁻¹	0.00367 s⁻¹	1.3	0.014 min⁻¹	0.11 min⁻¹	–	–	RhodamineB-GEKIPNFIPAELKLITK [RPtag(small) Cd4]
0.55 nM	183000 M⁻¹ s⁻¹	0.000102 s⁻¹	2.5	0.1 min⁻¹	0.042 min⁻¹	–	–	RhodamineB-GEKIPNFIPAELKLITKENV [RPtag(small) Cd1]
1.1 nM	1.63e+06 M⁻¹ s⁻¹	0.00183 s⁻¹	3.5	0.15 min⁻¹	0.043 min⁻¹	–	–	RhodamineB-GEKIPNFIPAELKLITKEN [RPtag(small) Cd2]
–	–	–	–	–	–	binds	binds	B1
–	–	–	–	–	–	binds	binds	B2
–	–	–	–	–	–	binds	binds	B3
–	–	–	–	–	–	binds	binds	B4
–	–	–	–	–	–	binds	binds	B5
–	–	–	–	–	–	binds	binds	B6
–	–	–	–	–	–	binds	binds	B7
–	–	–	–	–	–	binds	binds	B8
–	–	–	–	–	–	binds	binds	B9
–	–	–	–	–	–	binds	binds	B10
–	–	–	–	–	–	binds	binds	B11
–	–	–	–	–	–	binds	binds	B12
–	–	–	–	–	–	binds	binds	B13
–	–	–	–	–	–	binds	binds	B14
–	–	–	–	–	–	binds	binds	B15

Kd [1]	kon [2]	koff [3]	Keq (S-S*) [4]	kf (S to S*) [4]	kr (S* to S) [4]	binding result (RPtag(small) Nd2, Cd4)	binding result [5]	Binder
–	–	–	–	–	–	binds	binds	B16
–	–	–	–	–	–	binds	binds	B17
–	–	–	–	–	–	binds	binds	B18
–	–	–	–	–	–	binds	binds	B19
–	–	–	–	–	–	binds	binds	B20
0.56 nM	1.37e+06 M⁻¹ s⁻¹	0.000767 s⁻¹	0.6	0.081 min⁻¹	0.14 min⁻¹	–	–	RhodamineB-KIPNFIPAELKLITKE [RPtag(small) Nd2, Cd3]
0.13 nM	6.67e+06 M⁻¹ s⁻¹	0.000883 s⁻¹	0.3	0.084 min⁻¹	0.26 min⁻¹	–	–	RhodamineB-KIPNFIPAELKLITKA [RPtag(small) Nd2, Cd3, e18a]
0.64 nM	4.33e+06 M⁻¹ s⁻¹	0.00267 s⁻¹	0.6	0.093 min⁻¹	0.16 min⁻¹	–	–	RhodamineB-KIANFIPAELKLITKE [RPtag(small) Nd2, Cd3, p5a]
0.56 nM	5.5e+06 M⁻¹ s⁻¹	0.003 s⁻¹	0.7	0.086 min⁻¹	0.13 min⁻¹	–	–	RhodamineB-KIANFIPAELKLITKA [RPtag(small) Nd2, Cd3, p5a, e18a]
1.2 nM	1.25e+06 M⁻¹ s⁻¹	0.00148 s⁻¹	2.5	0.071 min⁻¹	0.038 min⁻¹	–	–	RhodamineB-GEKIPNFIPAELKLIAKENVQ [RPtag(small) t16a]
0.18 nM	1.13e+06 M⁻¹ s⁻¹	0.0002 s⁻¹	1.5	0.073 min⁻¹	0.05 min⁻¹	–	–	B21
1.2 nM	1.83e+06 M⁻¹ s⁻¹	0.002 s⁻¹	3.1	0.014 min⁻¹	0.045 min⁻¹	–	–	RhodamineB-GEKIPNFIPAELKLITKE [RPtag(small) Cd3]
0.36 nM	600000 M⁻¹ s⁻¹	0.000383 s⁻¹	0.8	0.045 min⁻¹	0.06 min⁻¹	–	–	RhodamineB-KIPNFIPAELKLITKANAA [RPtag(small) Nd2, e18a, v20a, q21a]
0.16 nM	3.33e+06 M⁻¹ s⁻¹	0.000217 s⁻¹	0.4	0.05 min⁻¹	0.14 min⁻¹	–	–	RhodamineB-KIANFIPAELKLITKANAA [RPtag(small) Nd2, p5a, e18a, v20a, q21a]
0.25 nM	567000 M⁻¹ s⁻¹	0.000147 s⁻¹	2.7	0.064 min⁻¹	0.024 min⁻¹	–	–	RhodamineB-EKIPNFIPAELKLITKENVQ [RPtag(small) Nd1]
0.41 nM	3.33e+06 M⁻¹ s⁻¹	0.00132 s⁻¹	0.7	0.093 min⁻¹	0.13 min⁻¹	–	–	B22
0.82 nM	3.67e+06 M⁻¹ s⁻¹	0.003 s⁻¹	0.8	0.11 min⁻¹	0.14 min⁻¹	–	–	RhodamineB-KIANFIPAELKLITK [RPtag(small) Nd2, Cd4, p5a]
